In PMC10142772:

Molecular target: D. officinale MYB5 (DoMYB5), R2R3-MYB transcription factor (Dendrobium officinale)
Sequence (main, as listed by the source): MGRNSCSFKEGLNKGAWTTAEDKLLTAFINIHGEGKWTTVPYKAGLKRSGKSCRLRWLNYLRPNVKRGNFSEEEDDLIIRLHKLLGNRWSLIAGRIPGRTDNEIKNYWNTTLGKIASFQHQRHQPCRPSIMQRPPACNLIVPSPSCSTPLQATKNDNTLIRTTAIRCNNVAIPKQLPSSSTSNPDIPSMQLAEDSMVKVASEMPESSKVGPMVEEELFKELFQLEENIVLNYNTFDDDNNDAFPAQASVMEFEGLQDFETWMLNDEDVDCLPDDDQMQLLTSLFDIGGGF

dual-luciferase assay in tobacco leaves: activity of the DoCHS promoter on co-expression of DoMYB5 and DobHLH24, against the control group (times higher than the control group): 4.8
dual-luciferase assay in tobacco leaves: activity of the DoDFR promoter on co-expression of DoMYB5 and DobHLH24, against the control group (times higher than the control group): 2.5
Substance: D. officinale bHLH24 (DobHLH24), bHLH transcription factor (natural protein)
